Experimental data reported in JP2001333780A (dated 2001).

Molecular target: T1, 上皮細胞増殖因子レセプター(EGFR) (UniProt P00533 25-1210, limits assumed)
T1 construct: whole, on cells; The antigen is formalin-fixed A431 cells; also called EGF レセプター; EGFレセプター
Test: competition ELISA with HRP-labelled B4G7 on formalin-fixed A431 cells

B1: 一本鎖scBH抗体 (scFv)
chain: QVQLQQSGAELVRPGASVKLSCTASGFNIKDTLMHWVKQRPEQGLEWIGWIDPEDGNTKYVRKFQGKATITADTSSNTAYLQVSSLTSEDTAIYYCVRGGSYGNWAYWGQGTTVTVSSDIELTQSPASLSASVGETVTITCRTSENIYSYFAWYQQKQGKSPHLLVYNAKTLAEGVPSRFSGSGSGTQFSLKINSLQPEDFGIYFCQHHYGSLHTFGGGTKLEIK
For B1, the “抗体一価あたりの結合力 (relative to B4G7抗体)” value was ~0.33 fold of B4G7 antibody, per antibody valence.

B2: CaC 型 ヒト型一本鎖抗体 (scFv)
scFv: MGHHHHHHQVQLVQSGAEVKKPGASVKVSCKASGFNIKDTLMHWVRQAPGQGLEWMGWIDPEDGNTKYVRKFQGRVTMTRDTSTSTVYMELSSLRSEDTAVYYCARGGSYGNWAYWGQGTTVTVSSGGGGSGGGGSGGGGSDIQMTQSPSSLSASVGDRVTITCRTSENIYSYFAWYQQKSGKAPKLLIYNAKTLAEGVPSRFSGSGSGTEFTLTISSLQPEDFATYFCQHHYGSLHTFGGGTTVDIKHHHHHHGGGS
notes: Humanised scFv with VH of Ca type and VL of C type
B2: binds.
